Results as given in US20120316071A1 (published 2012).

Legend:
[1] = target: T1, Recombinant Human DLL4 (R&D Systems Cat#1506-D4/CF) (human, UniProt Q9NR61 27-524); test: ECL multispot (MSD) binding assay, antigens spotted on plate, 20 nM Fab;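 note: fab incubated 1 h at 20 °C on antigen-spotted wells, bound Fab detected by TAG-labelled antibody, ratio of 4 or more over blank counted as a hit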
T1 construct: Bought recombinant protein; also called delta-like protein 4; rHuman DLL4

[2] = target: T2, rHuman P-Cadherin/Fc Chimera, CF (R&D Systems Cat#861-PC) (human, UniProt P22223 108-654); test: as above
T2 construct: Bought recombinant protein; Fc part of the bought chimera not given

[3] = target: T3, rHuman IGF-1 sR, (IGF-1 sR), CF (R&D Systems Cat#391-GR) (human, UniProt P08069 31-932); test: as above
T3 construct: Bought recombinant soluble receptor; The column head prints only 'IGF-1'; also called insulin-like growth factor-1 soluble receptor

[4] = target: T4, rHuman EGF R/Fc Chimera, CF (R&D Systems Cat#344-ER) (human, UniProt P00533 25-645); test: as above
T4 construct: Bought recombinant protein; also called epidermal growth factor receptor; Fc part of the bought chimera not given

[5] = target: T5, rHuman CD44/Fc Chimera, CF (R&D Systems Cat#3660-CD) (human, UniProt P16070 21-220); test: as above
T5 construct: Bought recombinant protein; Fc part of the bought chimera not given

[6] = target: T6, rHuman ErbB2/Fc Chimera, CF (R&D Systems Cat#1129-ER) (human, UniProt P04626 23-652); test: as above
T6 construct: Bought recombinant protein; also called human epidermal growth factor 2 receptor; Fc part of the bought chimera not given

[7] = target: T7, Recombinant Human DLL4 (delta-like protein 4) (human, UniProt Q9NR61 27-524); test: ELISA on coated DLL4, Fab at 12.5 nM (2-fold serial dilution)
T7 construct: also called rHuman DLL4; Delta-like 4

[8] = target: T7, Recombinant Human DLL4 (delta-like …); test: ELISA on coated DLL4, Fab at 100 nM (2-fold serial dilution)
[9] = target: T7, Recombinant Human DLL4 (delta-like …); test: ELISA on coated DLL4, Fab at 3.125 nM (2-fold serial dilution)
[10] = target: T7, Recombinant Human DLL4 (delta-like …); test: ELISA on coated DLL4, Fab at 6.25 nM (2-fold serial dilution)
[11] = target: T7, Recombinant Human DLL4 (delta-like …); test: ELISA on coated DLL4, Fab at 50 nM (2-fold serial dilution)
[12] = target: T7, Recombinant Human DLL4 (delta-like …); test: ELISA on coated DLL4, Fab at 25 nM (2-fold serial dilution)
[13] = target: T8, Recombinant Human DLL4 (delta-like protein 4) (human, UniProt Q9NR61 27-524); test: ECL (Meso Scale Discovery) binding assay on immobilised recombinant human DLL4; Fab concentration not given
T8 construct: Bought recombinant protein (R&D Systems Cat#1506-D4/CF); also called rHuman DLL4; Delta-like 4

Binder	ELISA signal [7]	ELISA signal [8]	ELISA signal [9]	ELISA signal [10]	ELISA signal [11]	ELISA signal [12]	ECL signal [13]	also measured
Fab VH3-23_IGHD2-21*01>3_IGHJ6*01 H100E/S108P/Y113G Y110T & V2-13_IGLJ2*01 (Fab, V domains shown, Tested as Fab made in E. coli: VH joined to CH1 (His and Flag tags), VL joined to lambda CL; also called EPG Y110T) VH: not shown VL: SSELTQDPAVSVALGQTVRITCQGDSLRSYYASWYQQKPGQAPVLVIYGKNNRPSGIPDRFSGSSSGNTASLTITGAQAEDEADYYCNSRDSSGNHLVVFGGGTKLTVL								ECL multispot signal (ratio to blank; column not labelled) [1]: 1.8; ECL multispot signal (ratio to blank; column not labelled) [2]: 1; ECL multispot signal (ratio to blank; column not labelled) [3]: 1.8; ECL multispot signal (ratio to blank; column not labelled) [4]: 1.8; ECL multispot signal (ratio to blank; column not labelled) [5]: 1.6; ECL multispot signal (ratio to blank; column not labelled) [6]: 0.8
Fab VH5-51_IGHD5-18*01>3_IGHJ4*01 G100K/G104T G24L & V3-4_IGLJ1*01 (Fab, V domains shown, Fab; also called H:KT G24L & L:parent) VH: EVQLVQSGAEVKKPGESLKISCKLSGYSFTSYWIGWVRQMPGKGLEWMGIIYPGDSDTRYSPSFQGQVTISADKSISTAYLQWSSLKASDTAMYYCARRKYSYTYDYFDYWGQGTLVTVSS VL: QTVVTQEPSFSVSPGGTVTLTCGLSSGSVSTSYYPSWYQQTPGQAPRTLIYSTNTRSSGVPDRFSGSILGNKAALTITGAQADDESDYYCVLYMGSGISYVFGTGTKVTVL	0.233	0.298	0.257	0.278	0.245	0.221		
Fab VH5-51_IGHD5-18*01>3_IGHJ4*01 G100K/G104T (H:KT) & V3-4_IGLJ1*01 (Fab, V domains shown, Tested as Fab made in E. coli: VH joined to CH1 (Plasmid A, His and Flag tags), VL joined to lambda CL (Plasmid E); also called H:KT & L:wt; KT double mutant) VH: EVQLVQSGAEVKKPGESLKISCKGSGYSFTSYWIGWVRQMPGKGLEWMGIIYPGDSDTRYSPSFQGQVTISADKSISTAYLQWSSLKASDTAMYYCARRKYSYTYDYFDYWGQGTLVTVSS VL: QTVVTQEPSFSVSPGGTVTLTCGLSSGSVSTSYYPSWYQQTPGQAPRTLIYSTNTRSSGVPDRFSGSILGNKAALTITGAQADDESDYYCVLYMGSGISYVFGTGTKVTVL							9360	
Fab VH5-51_IGHD5-18*01>3_IGHJ4*01 G100K/G104T (H:KT) & V3-4_IGLJ1*01 G23A, N175K (Fab, V domains shown, also called G100K/G104T & G23A/N175K) VH: EVQLVQSGAEVKKPGESLKISCKGSGYSFTSYWIGWVRQMPGKGLEWMGIIYPGDSDTRYSPSFQGQVTISADKSISTAYLQWSSLKASDTAMYYCARRKYSYTYDYFDYWGQGTLVTVSS VL: QTVVTQEPSFSVSPGGTVTLTCALSSGSVSTSYYPSWYQQTPGQAPRTLIYSTNTRSSGVPDRFSGSILGNKAALTITGAQADDESDYYCVLYMGSGISYVFGTGTKVTVLG							17800	
Fab VH5-51_IGHD5-18*01>3_IGHJ4*01 G100K/G104T S28R & V3-4_IGLJ1*01 (Fab, V domains shown, Fab; also called H:KT S28R & L:parent; H:KT S28R & L:wt) VH: EVQLVQSGAEVKKPGESLKISCKGSGYRFTSYWIGWVRQMPGKGLEWMGIIYPGDSDTRYSPSFQGQVTISADKSISTAYLQWSSLKASDTAMYYCARRKYSYTYDYFDYWGQGTLVTVSS VL: QTVVTQEPSFSVSPGGTVTLTCGLSSGSVSTSYYPSWYQQTPGQAPRTLIYSTNTRSSGVPDRFSGSILGNKAALTITGAQADDESDYYCVLYMGSGISYVFGTGTKVTVL	0.309	0.529	0.246	0.303	0.456	0.365		
Fab VH5-51_IGHD5-18*01>3_IGHJ4*01 G100K/G104T (H:KT) & V3-4_IGLJ1*01 T78S (Fab, V domains shown, Fab with CH1 and lambda CL from the expression plasmids; also called G100K/G104T & T78S) VH: EVQLVQSGAEVKKPGESLKISCKGSGYSFTSYWIGWVRQMPGKGLEWMGIIYPGDSDTRYSPSFQGQVTISADKSISTAYLQWSSLKASDTAMYYCARRKYSYTYDYFDYWGQGTLVTVSS VL: QTVVTQEPSFSVSPGGTVTLTCGLSSGSVSTSYYPSWYQQTPGQAPRTLIYSTNTRSSGVPDRFSGSILGNKAALTISGAQADDESDYYCVLYMGSGISYVFGTGTKVTVL							7550	
Fab VH5-51_IGHD5-18*01>3_IGHJ4*01 G100K/G104T (H:KT) & V3-4_IGLJ1*01 T78K (Fab, V domains shown, Fab with CH1 and lambda CL from the expression plasmids; also called G100K/G104T & T78K) VH: EVQLVQSGAEVKKPGESLKISCKGSGYSFTSYWIGWVRQMPGKGLEWMGIIYPGDSDTRYSPSFQGQVTISADKSISTAYLQWSSLKASDTAMYYCARRKYSYTYDYFDYWGQGTLVTVSS VL: QTVVTQEPSFSVSPGGTVTLTCGLSSGSVSTSYYPSWYQQTPGQAPRTLIYSTNTRSSGVPDRFSGSILGNKAALTIKGAQADDESDYYCVLYMGSGISYVFGTGTKVTVL							9620	
Fab VH5-51_IGHD5-18*01>3_IGHJ4*01 G100K/G104T T58A & V3-4_IGLJ1*01 (Fab, V domains shown, Fab; also called H:KT T58A & L:parent) VH: EVQLVQSGAEVKKPGESLKISCKGSGYSFTSYWIGWVRQMPGKGLEWMGIIYPGDSDARYSPSFQGQVTISADKSISTAYLQWSSLKASDTAMYYCARRKYSYTYDYFDYWGQGTLVTVSS VL: QTVVTQEPSFSVSPGGTVTLTCGLSSGSVSTSYYPSWYQQTPGQAPRTLIYSTNTRSSGVPDRFSGSILGNKAALTITGAQADDESDYYCVLYMGSGISYVFGTGTKVTVL	0.23	0.253	0.244	0.249	0.209	0.22		
Fab VH5-51_IGHD5-18*01>3_IGHJ4*01 G100K/G104T T58D & V3-4_IGLJ1*01 (Fab, V domains shown, Fab; also called H:KT T58D & L:parent) VH: EVQLVQSGAEVKKPGESLKISCKGSGYSFTSYWIGWVRQMPGKGLEWMGIIYPGDSDDRYSPSFQGQVTISADKSISTAYLQWSSLKASDTAMYYCARRKYSYTYDYFDYWGQGTLVTVSS VL: QTVVTQEPSFSVSPGGTVTLTCGLSSGSVSTSYYPSWYQQTPGQAPRTLIYSTNTRSSGVPDRFSGSILGNKAALTITGAQADDESDYYCVLYMGSGISYVFGTGTKVTVL	0.223	0.219	0.252	0.224	0.23	0.218		
Fab VH5-51_IGHD5-18*01>3_IGHJ4*01 G100K/G104T (H:KT) & V3-4_IGLJ1*01 T78V (Fab, V domains shown, Fab with CH1 and lambda CL from the expression plasmids; also called G100K/G104T & T78V) VH: EVQLVQSGAEVKKPGESLKISCKGSGYSFTSYWIGWVRQMPGKGLEWMGIIYPGDSDTRYSPSFQGQVTISADKSISTAYLQWSSLKASDTAMYYCARRKYSYTYDYFDYWGQGTLVTVSS VL: QTVVTQEPSFSVSPGGTVTLTCGLSSGSVSTSYYPSWYQQTPGQAPRTLIYSTNTRSSGVPDRFSGSILGNKAALTIVGAQADDESDYYCVLYMGSGISYVFGTGTKVTVL							9830	
Fab VH5-51_IGHD5-18*01>3_IGHJ4*01 G100K/G104T (H:KT) & V3-4_IGLJ1*01 T78E (Fab, V domains shown, Fab with CH1 and lambda CL from the expression plasmids; also called G100K/G104T & T78E) VH: EVQLVQSGAEVKKPGESLKISCKGSGYSFTSYWIGWVRQMPGKGLEWMGIIYPGDSDTRYSPSFQGQVTISADKSISTAYLQWSSLKASDTAMYYCARRKYSYTYDYFDYWGQGTLVTVSS VL: QTVVTQEPSFSVSPGGTVTLTCGLSSGSVSTSYYPSWYQQTPGQAPRTLIYSTNTRSSGVPDRFSGSILGNKAALTIEGAQADDESDYYCVLYMGSGISYVFGTGTKVTVL							10600	
Fab VH5-51_IGHD5-18*01>3_IGHJ4*01 G100K/G104T (H:KT) & V3-4_IGLJ1*01 S25A, A116T (Fab, V domains shown, also called G100K/G104T & S25A/A116T; named S52A/A116T in the running text) VH: EVQLVQSGAEVKKPGESLKISCKGSGYSFTSYWIGWVRQMPGKGLEWMGIIYPGDSDTRYSPSFQGQVTISADKSISTAYLQWSSLKASDTAMYYCARRKYSYTYDYFDYWGQGTLVTVSS VL: QTVVTQEPSFSVSPGGTVTLTCGLASGSVSTSYYPSWYQQTPGQAPRTLIYSTNTRSSGVPDRFSGSILGNKAALTITGAQADDESDYYCVLYMGSGISYVFGTGTKVTVLG							12200	
Fab VH5-51_IGHD5-18*01>3_IGHJ4*01 G100K/G104T (H:KT) & V3-4_IGLJ1*01 T78L (Fab, V domains shown, Fab with CH1 and lambda CL from the expression plasmids; also called G100K/G104T & T78L) VH: EVQLVQSGAEVKKPGESLKISCKGSGYSFTSYWIGWVRQMPGKGLEWMGIIYPGDSDTRYSPSFQGQVTISADKSISTAYLQWSSLKASDTAMYYCARRKYSYTYDYFDYWGQGTLVTVSS VL: QTVVTQEPSFSVSPGGTVTLTCGLSSGSVSTSYYPSWYQQTPGQAPRTLIYSTNTRSSGVPDRFSGSILGNKAALTILGAQADDESDYYCVLYMGSGISYVFGTGTKVTVL							9550	
Fab VH5-51_IGHD5-18*01>3_IGHJ4*01 G100K/G104T G35V & V3-4_IGLJ1*01 (Fab, V domains shown, Fab; also called H:KT G35V & L:parent) VH: EVQLVQSGAEVKKPGESLKISCKGSGYSFTSYWIVWVRQMPGKGLEWMGIIYPGDSDTRYSPSFQGQVTISADKSISTAYLQWSSLKASDTAMYYCARRKYSYTYDYFDYWGQGTLVTVSS VL: QTVVTQEPSFSVSPGGTVTLTCGLSSGSVSTSYYPSWYQQTPGQAPRTLIYSTNTRSSGVPDRFSGSILGNKAALTITGAQADDESDYYCVLYMGSGISYVFGTGTKVTVL	0.244	0.271	0.251	0.245	0.232	0.232		
